Source: patent publication US20200223912A1

B1: rabbit antibody Mab 086 (VH00/VL00) (antibody, V domains shown)
VH: QSVEESGGRLVTPGTPLTLTCTVSGFSLSSNAINWVRQAPGKGLEWIGYIAVSGNTYYASWAKGRFTISKASTTVDLKMTSPTAEDTGTYFCGKSNIWGPGTLVTVSL
VL: AQVLTQTTSPVSAAVGSTVTISCQSSQSVRTNKLAWFQQKPGQPPKRLIYSASTLDFGVPSRFSASGSGTQFTLTISDVQCDDAATYYCLGYFDCSIADCVAFGGGTEVVVK
B2: VH32/VL21 (antibody, V domains shown)
VH: EVQVLESGGGLVQPGGSLRLSCAVSGFSLSSNAINWVRQAPGKGLEWVGYIAVSGNTYYASWAKGRFTISRDNSKNTVYLQMNSLRAEDTAVYYCGKSNIWGQGTLVTVSS
VL: AQVMTQSPSSLSASVGDRVTITCRSSQSVRTNKLAWFQQKPGQPPKRLIYSASTLDFGVPSRFSGSGSGTEFTLTISSLQPEDFATYYCLGYFDSSADIVAFGGGTKVEIK

How the values were obtained:
[1] = target: human Tau(pS422) fragment (residues 416 to 430 with phosphorylated serine 422) (human); assay: ELISA, biotinylated peptide on streptavidin plate
[2] = target: human Tau(pS422) fragment (residues 416 to 430 with phosphorylated serine 422) (human); assay: ELISA, ratio of EC50 values
[3] = target: human Tau(pS422) fragment (residues 416 to 430 with phosphorylated serine 422) (human); assay: ELISA, coated antigen

| Binder | EC50 [1] | selectivity over non-phosphorylated Tau peptide [2] | EC50 [3] |
| --- | --- | --- | --- |
| B1 | 1.1 ng/mL | > 100 fold | 6.3 ng/mL |
| B2 | – | – | 4.4 ng/mL |
